Ends that are not written are not given here.
T1: 10-mer truncated form of APP28, YEVHH-QKLVF (SEQ ID NO: 8)
T1 chain: YEVHHQKLVF

T2: Ac-Tyr-Glu-Val-Ala-His-Gln-Lys-Leu-Val-Phe-NH2 (SEQ ID NO: 13)
T2 chain: YEVAHQKLVF

T3: proteolytic ADAM33 polypeptide (wild-type ADAM33 catalytic domain with Ser-Gly-His6 Tag, expressed in … (Homo sapiens (Human), UniProt Q9BZ11 204-409))
T3 sequence: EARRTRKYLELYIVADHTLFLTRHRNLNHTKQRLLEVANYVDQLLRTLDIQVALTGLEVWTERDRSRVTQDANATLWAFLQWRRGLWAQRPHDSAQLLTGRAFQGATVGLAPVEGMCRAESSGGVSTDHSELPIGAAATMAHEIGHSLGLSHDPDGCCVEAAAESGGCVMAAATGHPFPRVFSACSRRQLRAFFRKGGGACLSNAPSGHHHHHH

B1: proteolytic ADAM33 polypeptide (wild-type ADAM33 catalytic domain with Ser-Gly-His6 Tag, expressed in Drosophila S2 cells) (protein)
chain: T3 sequence

Key:
[1] = target: T1, 10-mer truncated form of APP28, …
[2] = target: T2, Ac-Tyr-Glu-Val-Ala-His-Gln-Lys-Leu-Val-P …
[3] = target: T3, proteolytic ADAM33 polypeptide …; test: cell-based or functional assay

Row | Binder | Relative Activity [3] | also measured
1 | B1 |  | cleavage [1]: identification of a 10-mer peptide substrate of a proteolytic ADAM33 polypeptide; kcat/Km [2]: kcat/Km=10,000 M-1s-1; rate of cleavage relative to the 10-mer truncated form of APP28 (SEQ ID NO: 8) [2]: at a rate seventeen times greater than the 10-mer truncated form of APP28 (SEQ ID NO: 8)
2 | EVAHQKLA-OH [EVAH*QKLA-OH (SEQ ID NO: 37)] | 0.1 | 
3 | Ac-YEVAHQKLVF-NH2 [Ac-Tyr-Glu-Val-Ala-His-Gln-Lys-Leu-Val-Phe-NH2 (SEQ ID NO: 13)] | 1 | 
4 | YEVAHQKLA-OH [YEVAH*QKLA-OH (SEQ ID NO: 12)] | 0.9 | 
5 | YEVAHQKLAF-OH [YEVAH*QKLAF-OH (SEQ ID NO: 7)] | 1.1 | 
6 | Ac-VAHQKL-NH2 [Ac-VAH*QKL-NH2 (SEQ ID NO: 38)] | 0 | 
7 | SGYEVAHQKLAFFA-OH [SGYEVAH*QKLAFFA-OH (SEQ ID NO: 11)] | 1.2 | 
8 | SGYEVAHQKLA-OH [SGYEVAH*QKLA-OH (SEQ ID NO: 9)] | 0.5 | 

— patent US20040152869A1 (SCHERING, published 2004)
